Target: FGF-1a produced in E. coli (human) (UniProt P05230)
Settings: scale: % band intensity remaining after 0.01% trypsin

intensity of the remaining band after trypsin treatment (SDS-denatured electrophoresis, blot): 6
Substance: trypsin (enzyme)
